In the supplement of paper PMC10567573:

B1: HDAC6 (parent)
chain: QEGLLDRCVSFQARFAEKEELMLV
B2: RIPK4 (parent)
chain: RERMELLEEAKKMEMAKFRYILPV

Variants of: B1
Experiment: protein stability index of a GFP-peptide fusion (GPS, HEK-293T) (PSI 1-6); higher = more stable
Conditions: c terminus: a fixed tail appended
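Further: lentivirally expressed fusions sorted by FACS into six bins by GFP to DsRed ratio, PSI derived from sequencing read proportions per bin multiplied by bin number.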

Variant | protein stability index
QEGLLDRCVSFQARFAEKEELQLV | 2.81
QEGLLDRCVSFQARFAEKEELDLV | 4.03
QEGLLDRCVSFQARFAEKEELHLV | 2.59
QEGLLDRCVSFQARFAEKNELMLV | 1.6
QEGLLDRCVSFQARFAEKMELMLV | 1.58
QEGLLDRCVSFQARFAEKFELMLV | 1.98
QEGLLDRCVSFQARFAEKCELMLV | 1.63
QEGLLDRCVSFQARFAEKSELMLV | 2.14
QEGLLDRCVSFQARFAEKQELMLV | 1.67
QEGLLDRCVSFQARFAEKRELMLV | 1.84
QEGLLDRCVSFQARFAEKVELMLV | 1.49
QEGLLDRCVSFQARFAEKWELMLV | 2.08
QEGLLDRCVSFQARFAEKTELMLV | 2.87
QEGLLDRCVSFQARFAEKPELMLV | 2.18
QEGLLDRCVSFQARFAEKLELMLV | 1.49
QEGLLDRCVSFQARFAEKAELMLV | 1.76
QEGLLDRCVSFQARFAEKIELMLV | 2
QEGLLDRCVSFQARFAEKDELMLV | 1.76
QEGLLDRCVSFQARFAEKGELMLV | 2.6
QEGLLDRCVSFQARFAEKKELMLV | 1.9

Variant | protein stability index
QEGLLDRCVSFQARFAEKYELMLV | 1.53
QEGLLDRCVSFQARFAEKHELMLV | 2.14
QEGLLDRCVSFQARFAEKEELMKV | 3.55
QEGLLDRCVSFQARFAEKEELMVV | 1.93
QEGLLDRCVSFQARFAEKEELMIV | 1.85
QEGLLDRCVSFQARFAEKEELMMV | 1.83
QEGLLDRCVSFQARFAEKEELMNV | 3.82
QEGLLDRCVSFQARFAEKEELMYV | 2.14
QEGLLDRCVSFQARFAEKEELMTV | 2.98
QEGLLDRCVSFQARFAEKEELMPV | 3.45
QEGLLDRCVSFQARFAEKEELMRV | 3.35
QEGLLDRCVSFQARFAEKEELMWV | 1.89
QEGLLDRCVSFQARFAEKEELMFV | 1.96
QEGLLDRCVSFQARFAEKEELMAV | 3.4
QEGLLDRCVSFQARFAEKEELMEV | 3.49
QEGLLDRCVSFQARFAEKEELMGV | 3.93
QEGLLDRCVSFQARFAEKEELMHV | 2.57
QEGLLDRCVSFQARFAEKEELMQV | 2.32
QEGLLDRCVSFQARFAEKEELMCV | 2.59
QEGLLDRCVSFQARFAEKEELMSV | 3.25

Variant | protein stability index
QEGLLDRCVSFQARFAEKEELMDV | 4.37
QEGLLDRCVSFQARFAEKEEDMLV | 4.3
QEGLLDRCVSFQARFAEKEEAMLV | 4.12
QEGLLDRCVSFQARFAEKEEWMLV | 2.03
QEGLLDRCVSFQARFAEKEEMMLV | 2.14
QEGLLDRCVSFQARFAEKEEHMLV | 2.45
QEGLLDRCVSFQARFAEKEERMLV | 3.06
QEGLLDRCVSFQARFAEKEETMLV | 2.73
QEGLLDRCVSFQARFAEKEEPMLV | 3.29
QEGLLDRCVSFQARFAEKEEFMLV | 1.98
QEGLLDRCVSFQARFAEKEEYMLV | 2.17
QEGLLDRCVSFQARFAEKEENMLV | 3.78
QEGLLDRCVSFQARFAEKEEVMLV | 2.14
QEGLLDRCVSFQARFAEKEEEMLV | 3.16
QEGLLDRCVSFQARFAEKEEIMLV | 1.59
QEGLLDRCVSFQARFAEKEECMLV | 2.18
QEGLLDRCVSFQARFAEKEEGMLV | 3.76
QEGLLDRCVSFQARFAEKEESMLV | 4.16
QEGLLDRCVSFQARFAEKEEKMLV | 3.17
QEGLLDRCVSFQARFAEKEEQMLV | 2.88

Variants of: B2
Experiment: as above
Conditions: c terminus: a fixed tail appended

Variant | protein stability index
RSRMELLEEAKKMEMAKFRYILPV | 2.77
RRRMELLEEAKKMEMAKFRYILPV | 2.67
RCRMELLEEAKKMEMAKFRYILPV | 1.34
RHRMELLEEAKKMEMAKFRYILPV | 2.75
RQRMELLEEAKKMEMAKFRYILPV | 2.31
RIRMELLEEAKKMEMAKFRYILPV | 1.93
RMRMELLEEAKKMEMAKFRYILPV | 2.37
RARMELLEEAKKMEMAKFRYILPV | 2.42
RNRMELLEEAKKMEMAKFRYILPV | 3.59
RLRMELLEEAKKMEMAKFRYILPV | 2.57
RDRMELLEEAKKMEMAKFRYILPV | 3.21
RGRMELLEEAKKMEMAKFRYILPV | 2.57
RFRMELLEEAKKMEMAKFRYILPV | 2.27
RVRMELLEEAKKMEMAKFRYILPV | 2.81
RPRMELLEEAKKMEMAKFRYILPV | 3.75
AERMELLEEAKKMEMAKFRYILPV | 3.83
DERMELLEEAKKMEMAKFRYILPV | 4.22

Variant | protein stability index
YERMELLEEAKKMEMAKFRYILPV | 2.9
HERMELLEEAKKMEMAKFRYILPV | 4.5
WERMELLEEAKKMEMAKFRYILPV | 2.5
FERMELLEEAKKMEMAKFRYILPV | 3.47
VERMELLEEAKKMEMAKFRYILPV | 3.83
TERMELLEEAKKMEMAKFRYILPV | 3.13
KERMELLEEAKKMEMAKFRYILPV | 4.16
PERMELLEEAKKMEMAKFRYILPV | 3.85
QERMELLEEAKKMEMAKFRYILPV | 3.9
IERMELLEEAKKMEMAKFRYILPV | 3.29
GERMELLEEAKKMEMAKFRYILPV | 3.79
CERMELLEEAKKMEMAKFRYILPV | 2.88
SERMELLEEAKKMEMAKFRYILPV | 3.53
EERMELLEEAKKMEMAKFRYILPV | 3.99
MERMELLEEAKKMEMAKFRYILPV | 3.98
LERMELLEEAKKMEMAKFRYILPV | 4.16
NERMELLEEAKKMEMAKFRYILPV | 4.13
